{
  "source": "patent US6555322B1",
  "about": "“α2-macroglobulin receptor as a receptor for CTGF” (FibroGen, Inc., priority 1999, dated 2003)",
  "molecules": {"B1": {"name": "connective tissue growth factor (protein)", "chain": "QNCSGPCRCPDEPAPRCPAGVSLVLDGCGCCRVCAKQLGELCTERDPCDPHKGLFCHFGSPANRKIGVCTAKDGAPCIFGGTVYRSGESFQSSCKYQCTCLDGAVGCMPLCSMDVRLPSPDCPFPRRVKLPGKCCEEWVCDEPKDQTVVGPALAAYRLEDTFGPDPTMIRANCLVQTTEWSACSKTCGMGISTRVTNDNASCRLEKQSRLCMVRPCEADLEENIKKGKKCIRTPKISKPIKFELSGCTSMKTYRAKFCGVCTDGRCCTPHRTTTLPVEFKCPDGEVMKKNMMFIKTCACHYNCPGDNDIFESLYYRKMYGDMA", "notes": "recombinant human CTGF produced in baculovirus-infected Hi 5 insect cells, also used radioiodinated"}, "B2": {"name": "lipoprotein lipase (protein)", "chain": "DRITGGKDFRDIESKFALRTPEDTAEDTCHLIPGVTESVANCHFNHSSKTFVVIHGWTVTGMYESWVPKLVAALYKREPDSNVIVVDWLSRAQQHYPVSAGYTKLVGQDVAKFMNWMADEFNYPLGNVHLLGYSLGAHAAGIAGSLTNKKVNRITGLDPAGPNFEYAEAPSRLSPDDADFVDVLHTFTRGSPGRSIGIQKPVGHVDIYPNGGTFQPGCNIGEALRVIAERGLGDVDQLVKCSHERSVHLFIDSLLNEENPSKAYRCNSKEAFEKGLCLSCRKNRCNNMGYEINKVRAKRSSKMYLKTRSQMPYKVFHYQVKIHFSGTESNTYTNQAFEISLYGTVAESENIPFTLPEVSTNKTYSFLLYTEVDIGELLMLKLKWISDSYFSWSNWWSSPGFDIGKIRVKAGETQKKVIFCSREKMSYLQKGKSPVIFVKCHDKSLNRKSG", "notes": "lipoprotein lipase purified from bovine milk, known LRP ligand"}, "B3": {"name": "lactoferrin (protein, UniProt P02788 20-710, looked up)", "Lactotransferrin": "GRRRSVQWCAVSQPEATKCFQWQRNMRKVRGPPVSCIKRDSPIQCIQAIAENRADAVTLDGGFIYEAGLAPYKLRPVAAEVYGTERQPRTHYYAVAVVKKGGSFQLNELQGLKSCHTGLRRTAGWNVPIGTLRPFLNWTGPPEPIEAAVARFFSASCVPGADKGQFPNLCRLCAGTGENKCAFSSQEPYFSYSGAFKCLRDGAGDVAFIRESTVFEDLSDEAERDEYELLCPDNTRKPVDKFKDCHLARVPSHAVVARSVNGKEDAIWNLLRQAQEKFGKDKSPKFQLFGSPSGQKDLLFKDSAIGFSRVPPRIDSGLYLGSGYFTAIQNLRKSEEEVAARRARVVWCAVGEQELRKCNQWSGLSEGSVTCSSASTTEDCIALVLKGEADAMSLDGGYVYTAGKCGLVPVLAENYKSQQSSDPDPNCVDRPVEGYLAVAVVRRSDTSLTWNSVKGKKSCHTAVDRTAGWNIPMGLLFNQTGSCKFDEYFSQSCAPGSDPRSNLCALCIGDEQGENKCVPNSNERYYGYTGAFRCLAENAGDVAFVKDVTVLQNTDGNNNEAWAKDLKLADFALLCLDGKRKPVTEARSCHLAMAPNHAVVSRMDKVERLKQVLLHQQAKFGRNGSDCPDKFCLFQSETKNLLFNDNTECLARLHGKTTYEKYLGPQYVAGITNLKKCSTSPLLEACEFLRK", "notes": "known LRP ligand"}, "B4": {"name": "transforming growth factor beta (protein)", "chain": "ALDAAYCFRNVQDNCCLRPLYIDFKRDLGWKWIHEPKGYNANFCAGACPYLWSSDTQHSRVLSLYNTINPEASASPCCVSQDLEPLTILYYIGKTPKIEQLSNMIVKSCKCS", "notes": "growth factor, 20 ng/ml TGF-β2 used to treat MG63 cells"}},
  "key": {"[1]": {"target": "T1, CTGF receptor on MG63 cells (Homo sapiens, UniProt Q07954)", "T1 construct": "endogenous in cells; host or cells: MG63 human osteosarcoma cells", "experiment": "Specificity of CTGF binding in the presence of known growth factors, cross-linking", "settings": "200 pM 125I-CTGF, growth factor at 1 μg/ml", "experimental": "The specificity of CTGF binding to the CTGF receptor was analyzed by performing an affinity binding experiment in the presence of a number of known growth factors. MG63 cells were labeled with 200 pM ^125I-CTGF in the presence of the indicated growth factor at 1 μg/ml. The cells were cross-linked with S-SMCC and the cell lysates were reduced prior to SDS-PAGE."}, "LRP": {"system": "LRP", "experiment": "Cross-linking and equilibrium binding of 125I-rhCTGF on MEF1, PEA 10 and PEA 13 cells", "design": "species or system murine", "experimental": "Three cell lines useful for a complete genetic system for the study of LRP function were generated by Willnow and Herz (1994, J. Cell Sci. 103:719-726) and obtained from the American Type Culture Collection (ATCC). The wild type line, MEF1, are fibroblasts originating from murine embryos and are homozygous positive for LRP expression. Fibroblasts that carry one or two copies of the defective LRP allele from hybrid embryos (see Herz et al.(1992) Cell. 71:411-21) were cultured in Pseudomonas exotoxin A (PEA) and the resistant clones, PEA 10 and PEA 13, which are heterozygous and homozygous, respectively, for LRP deficiency. Resistance to Pseudomonas exotoxin A by PEA 10 and PEA 13 cell lines, as well as sensitivity by MEF1 cells, was confirmed by growth in 30 ng/ml Pseudomonas exotoxin A after receipt from ATCC.\nThe three cell lines were cultured and plated for affinity binding with radiolabeled CTGF, cross-linking and gel analysis. Specifically, cross-linking of ^125I-rhCTGF to monolayers of MEF1, PEA 10 and PEA 13 cells were carried out as follows: Cells plated in 6-well dishes were incubated at 4° C. with 0.2 nM ^125I-rhCTGF in the presence (+) or absence (−) of a 200 fold excess of unlabeled rhCTGF in a binding buffer of PBS, 0.2% BSA, 0.02% sodium azide. After a 3 hour period of labeling, cells were cross-linked with 0.5 mM BS^3 for 15 minutes at room temperature. […]"}, "LRP receptor": {"target": "T2, LRP receptor (Mus musculus, UniProt Q91ZX7)", "T2 construct": "endogenous in cells; host or cells: BMS2 (BMS-2) murine bone marrow stromal cells", "T2 sequence (Q91ZX7 20-4545)": "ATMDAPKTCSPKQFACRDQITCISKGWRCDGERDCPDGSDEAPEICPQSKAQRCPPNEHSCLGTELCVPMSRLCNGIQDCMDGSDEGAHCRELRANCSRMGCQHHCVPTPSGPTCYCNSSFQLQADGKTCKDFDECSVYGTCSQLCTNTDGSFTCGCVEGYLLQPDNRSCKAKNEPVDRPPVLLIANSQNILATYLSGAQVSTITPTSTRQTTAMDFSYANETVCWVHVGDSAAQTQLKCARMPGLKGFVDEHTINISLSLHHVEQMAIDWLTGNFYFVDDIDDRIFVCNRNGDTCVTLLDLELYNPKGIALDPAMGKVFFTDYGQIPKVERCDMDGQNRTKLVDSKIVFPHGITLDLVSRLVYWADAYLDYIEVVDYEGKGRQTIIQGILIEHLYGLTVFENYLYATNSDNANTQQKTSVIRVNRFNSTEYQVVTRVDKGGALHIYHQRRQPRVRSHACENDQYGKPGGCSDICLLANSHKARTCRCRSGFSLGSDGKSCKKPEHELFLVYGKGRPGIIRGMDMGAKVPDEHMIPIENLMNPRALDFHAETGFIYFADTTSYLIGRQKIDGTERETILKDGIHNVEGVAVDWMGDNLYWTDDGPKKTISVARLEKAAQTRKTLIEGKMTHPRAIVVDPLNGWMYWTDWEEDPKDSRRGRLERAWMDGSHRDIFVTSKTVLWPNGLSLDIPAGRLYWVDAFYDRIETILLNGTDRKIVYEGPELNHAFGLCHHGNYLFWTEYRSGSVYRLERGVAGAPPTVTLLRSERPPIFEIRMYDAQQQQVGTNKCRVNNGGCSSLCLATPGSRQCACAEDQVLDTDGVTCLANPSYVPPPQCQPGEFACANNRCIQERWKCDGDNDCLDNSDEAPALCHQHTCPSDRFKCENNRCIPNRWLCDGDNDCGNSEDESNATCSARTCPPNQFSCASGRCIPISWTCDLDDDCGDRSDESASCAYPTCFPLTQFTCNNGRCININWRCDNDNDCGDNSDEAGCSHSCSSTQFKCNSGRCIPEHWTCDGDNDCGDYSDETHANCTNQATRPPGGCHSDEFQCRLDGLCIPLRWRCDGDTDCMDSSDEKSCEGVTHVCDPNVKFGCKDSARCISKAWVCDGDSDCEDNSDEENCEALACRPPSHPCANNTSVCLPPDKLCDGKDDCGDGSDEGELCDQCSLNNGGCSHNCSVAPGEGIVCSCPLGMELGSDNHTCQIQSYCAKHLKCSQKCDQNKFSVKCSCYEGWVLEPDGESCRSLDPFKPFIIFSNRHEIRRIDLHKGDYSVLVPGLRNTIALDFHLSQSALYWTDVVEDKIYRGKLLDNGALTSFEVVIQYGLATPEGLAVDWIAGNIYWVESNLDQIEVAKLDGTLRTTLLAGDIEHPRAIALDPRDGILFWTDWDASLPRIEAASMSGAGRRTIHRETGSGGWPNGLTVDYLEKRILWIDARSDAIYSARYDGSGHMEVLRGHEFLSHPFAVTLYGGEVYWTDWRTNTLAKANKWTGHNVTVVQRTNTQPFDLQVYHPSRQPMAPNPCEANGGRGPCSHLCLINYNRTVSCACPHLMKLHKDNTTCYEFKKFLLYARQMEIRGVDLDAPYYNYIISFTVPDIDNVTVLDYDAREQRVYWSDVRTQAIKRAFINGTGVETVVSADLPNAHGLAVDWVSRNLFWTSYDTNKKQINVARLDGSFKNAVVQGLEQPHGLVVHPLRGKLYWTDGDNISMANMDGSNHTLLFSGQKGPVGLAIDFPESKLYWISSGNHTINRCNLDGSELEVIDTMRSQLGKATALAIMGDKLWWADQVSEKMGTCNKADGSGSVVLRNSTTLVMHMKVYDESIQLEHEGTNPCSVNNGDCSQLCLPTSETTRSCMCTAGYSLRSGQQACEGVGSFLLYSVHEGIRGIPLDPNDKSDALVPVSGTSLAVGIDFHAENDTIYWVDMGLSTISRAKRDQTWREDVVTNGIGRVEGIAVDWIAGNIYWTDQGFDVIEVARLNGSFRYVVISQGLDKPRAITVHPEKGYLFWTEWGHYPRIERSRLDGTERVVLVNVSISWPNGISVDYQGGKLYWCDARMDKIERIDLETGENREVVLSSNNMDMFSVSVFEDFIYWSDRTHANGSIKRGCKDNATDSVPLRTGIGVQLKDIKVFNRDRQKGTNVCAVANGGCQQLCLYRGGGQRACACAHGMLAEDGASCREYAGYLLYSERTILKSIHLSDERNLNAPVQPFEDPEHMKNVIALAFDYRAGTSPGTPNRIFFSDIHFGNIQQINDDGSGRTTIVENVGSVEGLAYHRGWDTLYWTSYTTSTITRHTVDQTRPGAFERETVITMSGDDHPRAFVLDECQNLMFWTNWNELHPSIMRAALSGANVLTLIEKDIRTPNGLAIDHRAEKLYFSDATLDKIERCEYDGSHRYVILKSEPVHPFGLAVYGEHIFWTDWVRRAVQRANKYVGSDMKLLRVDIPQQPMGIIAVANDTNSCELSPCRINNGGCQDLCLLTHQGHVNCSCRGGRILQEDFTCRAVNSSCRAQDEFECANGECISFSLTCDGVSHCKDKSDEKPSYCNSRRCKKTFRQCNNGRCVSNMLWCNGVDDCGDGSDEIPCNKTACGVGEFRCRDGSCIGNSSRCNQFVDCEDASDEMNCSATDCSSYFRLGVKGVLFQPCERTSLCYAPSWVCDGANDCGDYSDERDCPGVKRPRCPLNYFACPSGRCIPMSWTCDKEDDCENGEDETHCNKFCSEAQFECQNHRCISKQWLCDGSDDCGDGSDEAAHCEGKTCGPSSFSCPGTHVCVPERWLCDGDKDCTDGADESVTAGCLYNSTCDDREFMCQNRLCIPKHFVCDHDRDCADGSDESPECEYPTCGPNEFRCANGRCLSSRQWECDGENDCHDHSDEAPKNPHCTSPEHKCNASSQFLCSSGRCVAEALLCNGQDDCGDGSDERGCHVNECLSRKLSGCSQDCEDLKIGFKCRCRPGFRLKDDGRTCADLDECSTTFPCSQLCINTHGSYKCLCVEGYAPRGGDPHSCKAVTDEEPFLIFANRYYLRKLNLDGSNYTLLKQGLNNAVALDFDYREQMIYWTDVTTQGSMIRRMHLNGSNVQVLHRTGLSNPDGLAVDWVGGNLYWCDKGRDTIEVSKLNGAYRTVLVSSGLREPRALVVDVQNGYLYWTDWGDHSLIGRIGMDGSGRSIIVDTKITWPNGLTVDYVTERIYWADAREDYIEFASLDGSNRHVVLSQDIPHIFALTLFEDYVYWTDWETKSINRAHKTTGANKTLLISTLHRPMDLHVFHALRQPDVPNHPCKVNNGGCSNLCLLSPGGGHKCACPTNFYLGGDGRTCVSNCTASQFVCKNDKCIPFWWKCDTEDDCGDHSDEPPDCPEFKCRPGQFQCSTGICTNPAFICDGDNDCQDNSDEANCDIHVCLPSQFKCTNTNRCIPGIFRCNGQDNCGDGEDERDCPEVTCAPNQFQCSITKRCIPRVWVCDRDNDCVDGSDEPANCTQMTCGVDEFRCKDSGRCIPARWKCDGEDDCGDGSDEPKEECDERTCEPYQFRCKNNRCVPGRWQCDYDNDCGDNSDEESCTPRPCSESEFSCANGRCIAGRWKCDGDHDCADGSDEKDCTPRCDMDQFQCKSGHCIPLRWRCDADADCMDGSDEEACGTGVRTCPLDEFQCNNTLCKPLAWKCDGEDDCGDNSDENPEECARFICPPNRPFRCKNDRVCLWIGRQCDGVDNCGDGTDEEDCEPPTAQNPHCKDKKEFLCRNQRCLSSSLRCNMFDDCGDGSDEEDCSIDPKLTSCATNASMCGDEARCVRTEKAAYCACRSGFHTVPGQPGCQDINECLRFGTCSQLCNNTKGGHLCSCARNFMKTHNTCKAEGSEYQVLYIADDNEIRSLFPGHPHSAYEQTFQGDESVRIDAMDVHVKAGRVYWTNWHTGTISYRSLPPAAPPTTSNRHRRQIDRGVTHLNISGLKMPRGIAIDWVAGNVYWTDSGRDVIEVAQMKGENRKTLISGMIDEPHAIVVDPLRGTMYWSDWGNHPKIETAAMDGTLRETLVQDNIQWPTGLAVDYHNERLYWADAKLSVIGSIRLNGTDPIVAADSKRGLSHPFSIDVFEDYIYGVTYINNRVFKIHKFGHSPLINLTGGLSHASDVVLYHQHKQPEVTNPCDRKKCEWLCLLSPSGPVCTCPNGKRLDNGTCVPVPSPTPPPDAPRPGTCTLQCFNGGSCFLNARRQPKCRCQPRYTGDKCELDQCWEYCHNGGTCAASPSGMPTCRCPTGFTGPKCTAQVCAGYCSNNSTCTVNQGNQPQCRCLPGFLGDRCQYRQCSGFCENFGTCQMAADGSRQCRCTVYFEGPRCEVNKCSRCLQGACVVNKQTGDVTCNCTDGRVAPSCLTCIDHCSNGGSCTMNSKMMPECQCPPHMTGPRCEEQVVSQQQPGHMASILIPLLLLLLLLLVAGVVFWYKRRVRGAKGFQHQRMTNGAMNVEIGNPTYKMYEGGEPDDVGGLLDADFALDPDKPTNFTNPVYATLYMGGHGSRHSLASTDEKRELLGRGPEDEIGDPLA", "experiment": "Competitive binding and cross-linking of LRP ligands with 125I-CTGF on BMS-2 cells", "design": "species or system murine", "settings": "50 pM 125I-CTGF; CTGF 21.5 nM, BP5 201-218 50 μg/ml, LF 25 μg/ml, apo E 20 μg/ml, LpL 20 μg/ml", "experimental": "To examine whether ligands known to bind to LRP inhibit CTGF binding, BMS-2 cells were labeled with 50 pM ^125I-CTGF in the presence or absence of unlabeled ligand (CTGF: 21.5 nM; BP5^201-218: 50 μg/ml or […] (Campbell and Andress, 1997, Am. J. Physiol., 273:E1005-13); lactoferrin (LF): 25 μg/ml or 250 nM; apo E: 20 μg/ml or 574 nM; lipoprotein lipase (LpL): 20 μg/ml or 400 nM). The cells were cross-linked and the receptor complexes were solubilized, processed on SDS-PAGE and visualized by autoradiography."}, "MG63 cells [2]": {"system": "MG63 cells", "experiment": "Internalization and degradation kinetics of 125I-CTGF with heparin or lactoferrin", "assay_type": "cell-based, human", "experimental": "Experiments were performed in which the internalization and degradation kinetics of CTGF were followed in the presence or absence of a known LRP ligand, lactoferrin. Kinetics were followed in the presence or absence of 3 μg/ml heparin or lactoferrin. ^125I-CTGF was bound to MG63 cells at 4° C. and free CTGF was removed by washing the cells. Fresh medium was placed on the cells, and the cells were transferred to 37° C. At each time point, the medium was removed and TCA precipitated. Degraded ^125I-CTGF was quantified by measuring the cpm in the non-precipitable fraction (see FIG. 17). In parallel experiments, ^125I-CTGF was bound to MG63 cells at 4° C. and free CTGF was removed by washing the cells. Fresh medium was placed on the cells, and they were transferred to 37° C. At each time point, the cell layer was removed by extensive trypsinization at 4° C. The cells were centrifuged and the cpm associated with the pellet, the internalized fraction, was determined (see FIG. 18)."}, "CTGF receptor": {"system": "CTGF receptor", "experiment": "Cell survey of CTGF cross-linked receptor complexes", "assay_type": "binding"}, "MG63 cells [3]": {"system": "MG63 cells", "experiment": "Internalization and degradation of 125I-rhCTGF during binding, with additives", "assay_type": "cell-based, human", "settings": "two hour incubation at 37° C."}, "[4]": {"target": "T3, high Mr CTGF binding protein on BMS-2 cells (Mus musculus, UniProt Q91ZX7)", "T3 construct": "endogenous in cells; host or cells: BMS2 (BMS-2) murine bone marrow stromal cells", "T3 sequence (Q91ZX7 20-4545)": "as above", "experiment": "Binding analysis of 125I-CTGF competition with LRP ligands on BMS-2 cells", "design": "species or system murine", "settings": "0.1 nM 125I-CTGF", "experimental": "BMS-2 cells were incubated with 0.1 nM ^125I-CTGF in the presence of unlabeled CTGF, recombinant human apoE, low density lipoprotein purified from human plasma (LDL), or lipoprotein lipase purified from bovine milk (LpL)."}, "MG63 cells [5]": {"system": "MG63 cells", "experiment": "Internalization and degradation time course of 125I-rhCTGF after TGF-β treatment", "assay_type": "cell-based, human", "experimental": "To examine whether LRP function was altered by TGF-β treatment, the following experiments were conducted. MG63 cells were plated at 2.5×10^4 cells/cm^2 in MEM with 10% FBS. The following day, the cells were rinsed with MEM containing 0.5% MEM and incubated in this low serum medium with or without 20 ng/ml of TGF-β2. At 24 or 48 hours the cells were rinsed twice with binding medium, then incubated at 4° C. for 3 hours with 0.2 nM ^125I-rhCTGF. After incubation, the cells were rinsed 4 times with binding buffer at 4° C., then fresh binding buffer pre-warmed to 37° C. was added and the cells continued incubation at 37° C. At time points of 0, 15, 30, 60, 120 and 180 min, the media were collected and processed by precipitation with 10% TCA. The cell layer was processed by trypsination of the cells. Pellets and supernatants were separated and counted for each point."}, "MG63 cells [6]": {"system": "MG63 cells", "experiment": "Protein synthesis in the presence of PEA as measure of LRP internalization activity", "assay_type": "cell-based, human", "settings": "20 ng/ml TGF-β for 48 hours, 14C-amino acid pulse", "experimental": "Pseudomonas exotoxin A (PEA) is a ligand for LRP, and following internalization is degraded in lysosomes. One of the degradation products contains PEA domain III, which promotes ADP-ribosylation of elongation factor-2, inhibiting protein synthesis. Protein synthesis in the presence of various concentrations of PEA was used to measure the internalization activity of LRP. To test whether TGF-β altered LRP activity for PEA internalization, MG63 cells were treated with 20 ng/ml TGF-β for 48 hours, then treated with various concentrations of PEA. After 2 hours, protein synthesis was monitored with an overnight pulse of ^14C-amino acids. The cell layers were extracted with 10% trichloroacetic acid and counted."}, "[7]": {"settings": "20 ng/ml TGF-β2, 48 hour exposure"}},
  "data": [
    {"molecule": "B1", "values": [
      {"measurement": "competition for CTGF binding to the cell surface", "setting": "[1]", "result": "effectively competed"},
      {"measurement": "cross-linked signal co-migrating with the complex, PEA 13 cells", "setting": "LRP; 0.2 nM 125I-rhCTGF, BS3, overexposed autoradiograph", "result": "no signal"},
      {"measurement": "CTGF binding on PEA 13 cells", "setting": "LRP; PEA 13, homozygous LRP deficient", "result": "no binding was detected"},
      {"measurement": "competing the binding to the LRP receptor", "setting": "LRP receptor", "result": "most effective"},
      {"measurement": "time of internalization of CTGF", "setting": "MG63 cells [2]; 37° C. after binding at 4° C.", "result": "≤ 30", "unit": "min"},
      {"measurement": "cross-linking of CTGF to CHO and MLEC cells", "setting": "CTGF receptor", "result": "did not appear to cross-link"},
      {"measurement": "CTGF specifically internalized, control cells", "setting": "MG63 cells [3]; 0.2 nM 125I-rhCTGF, no TGF-β", "result": "approximately 260 fmoles CTGF/mg cell protein"},
      {"measurement": "CTGF degraded, control cells", "setting": "MG63 cells [3]; no TGF-β", "result": "About 1000 fmoles/mg cell protein"}
    ]},
    {"molecule": "B2", "values": [
      {"measurement": "competition with 125I-CTGF", "setting": "[4]", "result": "competed"},
      {"measurement": "competing the binding to the LRP receptor", "setting": "LRP receptor", "result": "very effective in competing"}
    ]},
    {"molecule": "B3", "values": [
      {"measurement": "competing the binding to the LRP receptor", "setting": "LRP receptor", "result": "very effective in competing"},
      {"measurement": "rate of degradation of CTGF", "setting": "MG63 cells [2]; 3 μg/ml heparin or lactoferrin", "result": "reduced the rate"},
      {"measurement": "rate of internalization of CTGF", "setting": "MG63 cells [2]; 3 μg/ml heparin or lactoferrin", "result": "reduced the rate"}
    ]},
    {"molecule": "B4", "values": [
      {"measurement": "degradation of 125I-CTGF, control cells relative to TGF-β treated cells", "setting": "MG63 cells [5]; [7]", "result": "at least 3 fold"},
      {"measurement": "internalization of CTGF in TGF-β treated cells", "setting": "MG63 cells [5]; [7]", "result": "more modest internalization"},
      {"measurement": "internalization and degradation of CTGF by CTGF receptor (LRP), lower in TGF-β treated cells", "setting": "MG63 cells [5]; TGF-β treated versus control cells", "result": "about 3 fold"},
      {"measurement": "sensitivity to PEA, TGF-β treated cells less sensitive than control cells", "setting": "MG63 cells [6]", "result": "about 3 fold"},
      {"measurement": "CTGF degraded, TGF-β treated cells", "setting": "MG63 cells [3]; 48 hours post-TGF-β exposure", "result": 400, "unit": "fmol"},
      {"measurement": "CTGF specifically internalized, TGF-β treated cells", "setting": "MG63 cells [3]; 48 hours post-TGF-β exposure", "result": "about 150 fmoles"}
    ]}
  ]
}
